Biological target: T1, recombinant soluble form of the extracellular domain of DC-SIGN, Q9NNX6
T1 chain: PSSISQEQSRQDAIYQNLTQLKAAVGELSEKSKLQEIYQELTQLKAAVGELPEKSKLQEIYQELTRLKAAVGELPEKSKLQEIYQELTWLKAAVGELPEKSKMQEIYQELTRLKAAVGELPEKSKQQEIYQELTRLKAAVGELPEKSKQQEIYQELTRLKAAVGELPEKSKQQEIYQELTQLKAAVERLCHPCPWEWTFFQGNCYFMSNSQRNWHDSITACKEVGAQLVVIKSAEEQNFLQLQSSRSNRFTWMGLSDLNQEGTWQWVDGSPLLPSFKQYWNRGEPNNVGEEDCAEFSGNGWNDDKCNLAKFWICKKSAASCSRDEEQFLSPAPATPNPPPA
Test: native gel or EMSA; denaturing and nondenaturing polyacrylamide gel electrophoresis of the refolded, purified protein (fig. S2, A and B)
Conditions: remark: other sources report otherwise

stoichiometry N: 4
B1: recombinant soluble form of the extracellular domain of DC-SIGN, Q9NNX6 64-404 (domain or fragment)
chain: T1 chain

Source: publication PMC10198640
